This is an account of results in patent US20040170622A1, “Methods and compositions for modulating XBP-1 activity” (President and Fellows of Harvard College, priority 2002, published 2004).

This test has as its system XBP-1 and ATF6α. The test is described as follows: UPRE (5×ATF6GL3) reporter in MEF cells with dominant negative XBP-1. The test is classed as cell-based. As to the method:
(A) The 5×ATF6GL3 reporter plasmid was cotransfected with either pCGNATF6α or XBP-u/s plasmids into MEF cells with or without the dominant negative XBP-1 expression plasmid. 100 ng DNA was used for each transfection except for pCDNA3.1, which was added to give 1 μg of DNA in total. Luciferase assays were performed as described in the legend to FIG. 18.(B) MEF and MEF-dn-XBP cells that stably express dominant negative XBP-1 protein were treated with 10 μg/ml Tm for the indicated time periods. Total RNAs were isolated and subjected to Northern blot analysis. The same blot was hybridized sequentially with BiP, CHOP, ERdj4, p58^ipk and ATF6α probes. Ethidium bromide staining of the gel before blotting is shown at the bottom as loading control.
To make 4×XBPGL3, two complementary oligonucleotides containing the XBP-1 binding site 5^f-CGCG(TGGATGACGTGTACA)4-3′ (SEQ ID NO: 12) and 5′-GATC(TGTACACGTCATCCA)4-3^f (SEQ ID NO: 13) were annealed and ligated to the—40-Luc plasmid (Lee et al. 2000. Biochem J. 350 Pt1:131-138) digested by Mlu I and Bgl II. The UPRE reporter was constructed by inserting an annealed oligonucleotide containing two UPRE motifs (Roy and Lee 1999 Nucleic Acids Res. 27:1437), 5′-cgcgtcaCCAATcggaggcctCCACGaccaCCAATcggaggcctCCACGac-3′, (SEQ ID NO: 14) to the 40-Luc plasmid between the Mlu I and Xho I sites (Lee et al. 2000. Biochem J. 350 Pt1:131-138). UPRE reporter (5×ATF6GL3), pCGNATF6 and pCGNAF6 (1-373) were previously described (Wang et al. 2000. J. Biol. Chem. 275:27013). The pCDNA3.1 ([…]) driven expression vectors for mouse XBP-1s and XBP-1u/s were described elsewhere (Iwakoshi et al. 2003. Nature Immunology 4:321). pCDNA-dn-XBP was constructed by removing the region downstream of the Eco RV site of XBP-1s cDNA in the pCDNA-XBP-1s plasmid. TREhyg-XBP-1s and TREhyg-dn-XBP were constructed by inserting the XBP-1s cDNA and DN-XBP, respectively, into TRE2 hyg (Clontech) between the Pvu II and Sal I sites. […]

Where two headings read alike, the source gives them in different places.

B1: dn-XBP: dominant negative XBP-1 containing the N-terminal 188 aa, lacking transactivation domain, retaining leucine zipper (protein)
chain: MVVVAAAPSAATAAPKVLLLSGQPASGGRALPLMVPGPRAAGSEASGTPQARKRQRLTHLSPEEKALRRKLKNRVAAQTARDRKKARMSELEQQVVDLEEENHKLQLENQLLREKTHGLVVENQELRTRLGMDTLDPDEVPEVEAKGSGVRLVAGSAESAAGAGPVVTSPEHLPMDSDTVASSDSESD
In the case of B1, the “transactivation of the UPRE reporter by ATF6α / function of ATF6” value was “inhibited the transactivation of the UPRE reporter by ATF6α” and the “transactivation of the UPRE reporter by XBP-1s” value was “completely abolished transactivation of the UPRE reporter by XBP-1s”. The “transactivation of the UPRE reporter by ATF6α / function of ATF6” value (listed as dn-XBP-1) is listed as “potently inhibited the function of ATF-6 through heterodimerization”.
